Earlier results in article PMC9489792.

Legend:
Asp85 = Asp85 (UniProt position 98, WARYADWLFTT); details: not stated (presumably the dark/ground state with protonated Schiff base)
Glu85 = Glu85 (UniProt position 98, WARYAEWLFTT); details: not stated (presumably the dark/ground state with protonated Schiff base)

Substance | pKa (Asp85) | pKa (Glu85)
Bacteriorhodopsin (BR) (Halobacterium salinarum (organism inferred; the article only says BR / bacteriorhodopsin)) | 3.6 | –
Bacteriorhodopsin D85E mutant (BR-D85E) (Halobacterium salinarum (organism inferred; the article only says BR / bacteriorhodopsin); D85E) | – | 6.5
